Common to all, as to assay: SPR
Common to all, as to conditions: both partners purified

Assay [1] deals with T1, Recombinant Human GRP75/HSPA9B/Mortalin His Protein (human, UniProt P38646 47-679).
T1 construct: source: bought: Novus Biologicals, LLC/R&D Systems

Assay [2] deals with T2, Recombinant Human Vimentin Protein, CF (human, UniProt P08670 1-466).
T2 construct: source: bought: Novus Biologicals, LLC/R&D Systems

For assay [3], the target named is T1, Recombinant Human GRP75/HSPA9B/Mortalin …. This is another data set of the same source.
The target in assay [4] is T2, Recombinant Human Vimentin Protein, CF. This is another data set of the same source.

T2 sequence (P08670 whole entry): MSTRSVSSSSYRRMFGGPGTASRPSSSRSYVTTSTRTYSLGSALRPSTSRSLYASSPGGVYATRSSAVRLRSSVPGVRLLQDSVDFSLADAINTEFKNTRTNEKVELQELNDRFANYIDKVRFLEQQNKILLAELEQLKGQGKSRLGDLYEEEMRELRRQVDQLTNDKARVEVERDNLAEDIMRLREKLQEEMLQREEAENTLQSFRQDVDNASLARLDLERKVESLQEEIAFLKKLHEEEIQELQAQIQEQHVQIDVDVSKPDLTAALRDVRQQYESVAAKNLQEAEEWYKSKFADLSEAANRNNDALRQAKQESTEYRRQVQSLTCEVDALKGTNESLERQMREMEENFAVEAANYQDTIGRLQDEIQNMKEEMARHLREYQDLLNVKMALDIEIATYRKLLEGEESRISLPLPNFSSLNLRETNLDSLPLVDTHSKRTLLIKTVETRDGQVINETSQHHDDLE
T1 sequence (P38646 47-679): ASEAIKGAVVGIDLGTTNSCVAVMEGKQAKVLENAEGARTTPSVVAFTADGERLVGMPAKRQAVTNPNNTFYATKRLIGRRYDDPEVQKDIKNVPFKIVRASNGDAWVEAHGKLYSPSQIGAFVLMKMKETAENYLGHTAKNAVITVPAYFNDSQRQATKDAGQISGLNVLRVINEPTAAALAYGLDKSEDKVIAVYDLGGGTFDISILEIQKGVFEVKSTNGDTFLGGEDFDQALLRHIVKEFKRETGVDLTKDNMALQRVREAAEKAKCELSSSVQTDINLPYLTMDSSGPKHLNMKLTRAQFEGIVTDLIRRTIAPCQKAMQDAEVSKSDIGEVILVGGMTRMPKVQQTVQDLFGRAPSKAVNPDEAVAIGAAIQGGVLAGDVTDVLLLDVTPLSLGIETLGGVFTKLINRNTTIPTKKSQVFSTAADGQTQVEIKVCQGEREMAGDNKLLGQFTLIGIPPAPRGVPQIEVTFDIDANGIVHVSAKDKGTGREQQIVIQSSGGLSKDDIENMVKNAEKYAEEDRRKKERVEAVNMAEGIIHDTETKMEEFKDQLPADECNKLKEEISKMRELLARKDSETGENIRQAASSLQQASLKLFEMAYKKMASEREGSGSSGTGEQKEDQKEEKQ

B1: HIV-1 Nef protein (natural protein)
chain: MGGKWSKSSVVGWPTVRERMRRAEPAADGVGAASRDLEKHGAITSSNTAATNAACAWLEAQEEEEVGFPVTPQVPLRPMTYKAAVDLSHFLKEKGGLEGLIHSQRRQDILDLWIYHTQGYFPDWQNYTPGPGVRYPLTFGWCYKLVPVEPDKVEEANKGENTSLLHPVSLHGMDDPEREVLEWRFDSRLAFHHVARELHPEYFKNC
notes: also called full Nef protein
As for B1, the equilibrium dissociation constant (Kd) – broadly, the equilibrium constant for the complex coming apart – in assay [1] amounted to 3.16 nM; in assay [2] it was 0.75 nM; in assay [3], 2.1 nM; in assay [4], 0.2 nM.

These data come from paper PMC12469269, “Investigating SMR Peptide Interactions with Breast Cancer-Associated Proteins” (International Journal of Molecular Sciences, 2025).
